Assay results as given in patent US20240343803A1 (SHANDONG SIMCERE BIOPHARMACEUTICAL, published 2024).

How the values were obtained:
[1] = molecular target: T1, human PVRIG-his (AcroBiosystems, Cat NO. PVG-H52H4) (human, UniProt Q6DKI7 41-171, limits assumed); assay: ELISA, coated human PVRIG-his; binding ELISA, Table 23
T1 construct: Bought reagent; also called human PVRIG protein
T1 sequence (looked up): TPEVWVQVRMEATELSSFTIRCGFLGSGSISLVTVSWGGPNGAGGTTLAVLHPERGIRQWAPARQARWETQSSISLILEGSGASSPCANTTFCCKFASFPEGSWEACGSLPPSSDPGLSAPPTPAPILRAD
Method: The ELISA plate was pre-coated with 100 μL/well of 0.5 μg/mL human PVRIG-his (AcroBiosystems, Cat NO. PVG-H52H4) or cynomolgus monkey PVRIG (Novoprotein, Cat NO. C09B). […] A HRP substrate, TMB (Thermo, Cat NO. 34029) was added into wells after washing the plate again for color development. After adding a termination solution to terminate the reaction, the absorbance value was read by a microplate reader (MD i3×). An antibody binding curve was drawn with concentration of antibodies as the abscissa and the corresponding OD value as the ordinate. The EC50 value was calculated by using a Four Parameter Logistic Fit (GraphPadPrism9). The smaller the EC50 value, the stronger the ability of the antibodies binds to human or cynomolgus monkey PVRIG. The positive control antibodies are COM701-hIgG1 (Patent No.:US20180244774A1), COM701-hIgG4 (patent No.: US20180244774A1) and SRF813-hIgG1 (Patent No.:US20200040081A1); and the negative control antibodies are anti-HA HcAb-hIgG1 (Chengdu NB Biolab, Cat NO. NBR022), anti-CD38 HcAb-hIgG1 (in-house) and anti-Fluorescein-hIgG1 (in house).

[2] = molecular target: T2, cynomolgus monkey PVRIG on FlpinCHO-cyno PVRIG cells (cynomolgus monkey, UniProt A0A2K5WVV8 41-322); assay: FACS, FlpinCHO-cyno PVRIG cells; AUC of MFI curve relative to COM701-hIgG1
T2 construct: whole, on cells
T2 sequence: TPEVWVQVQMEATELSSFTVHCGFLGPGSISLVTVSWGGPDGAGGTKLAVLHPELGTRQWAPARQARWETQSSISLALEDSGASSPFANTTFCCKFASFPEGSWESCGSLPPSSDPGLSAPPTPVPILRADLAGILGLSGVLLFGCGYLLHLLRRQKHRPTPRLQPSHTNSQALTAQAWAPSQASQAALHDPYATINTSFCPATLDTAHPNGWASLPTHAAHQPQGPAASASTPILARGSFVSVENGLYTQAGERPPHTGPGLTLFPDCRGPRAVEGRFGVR
Method: (§1) The Ham's F12 (Gibico, 21127-022) complete medium containing 10% FBS was then added to terminate the digestion and acquire cell suspension. After counting with a cell counter (Beckman Coulter, Vi-CELL), an appropriate amount of cell suspension was centrifuged at 350×g to remove the supernatant, washed twice with PBS, stained with Zombie violet (Biolegend, 423114) and incubated at room temperature for 20 minutes. After incubation, the cells were added with staining buffer (2% FBS+PBS) to stop staining, centrifuged at 350×g to remove the supernatant, washed twice and resuspended with staining buffer to a density of 2×10⁶ cells/mL. The cells were plated into a 96-well plate (50 μL of cell suspension per well) for further use. The antibodies were diluted from the highest concentration of 46 nM (two-fold concentration) with staining buffer by 3.3-fold serial dilution. The diluted antibodies were added to the well containing 50 μL of cell suspension. The plate was placed on a microplate shaker at 400 rpm for 1 minute to fully mix the antibodies and cells, and then incubated at 4° C. for 30 minutes. After the incubation, the cells were washed twice with staining buffer (200 μL per well) and centrifuged at 350×g for 5 minutes to discard the supernatant. The PE goat anti-human IgG Fc antibody (ebioscience, 12-4998-82) was diluted 250 times with staining buffer, added into the washed wells (100 μL per well), mixed well, and stained at 4° C. for 30 minutes. After staining, the cells were washed twice with staining buffer, finally resuspended with 200 μL staining buffer and analyzed by flow cytometry (BD, Canto II). The stronger the signal, the stronger the ability of the antibodies binds to PVRIG. An antibody binding curve was drawn with concentration of antibodies as the abscissa and the corresponding Mean Fluorescence Intensity (MFI) as the ordinate. The AUC value of the curve was calculated by using a Four Parameter Logistic Fit (GraphPadPrism9). The stronger the AUC value, the stronger the ability of the antibodies binds to FlpinCHO-PVRIG and FlpinCHO-cyno PVRIG. […] The binding activity of the antibodies was normalized to the positive control COM701-hIgG1 and SRF813-hIgG1.

[3] = molecular target: T2, cynomolgus monkey PVRIG on …; assay: FACS, FlpinCHO-cyno PVRIG cells; AUC of MFI curve relative to SRF813-hIgG1
Method: as §1

[4] = molecular target: T3, human PVRIG on FlpinCHO-PVRIG cells (human, UniProt Q6DKI7 41-326); assay: FACS, FlpinCHO-PVRIG cells; AUC of MFI curve relative to COM701-hIgG1
T3 construct: whole, on cells
T3 sequence (looked up): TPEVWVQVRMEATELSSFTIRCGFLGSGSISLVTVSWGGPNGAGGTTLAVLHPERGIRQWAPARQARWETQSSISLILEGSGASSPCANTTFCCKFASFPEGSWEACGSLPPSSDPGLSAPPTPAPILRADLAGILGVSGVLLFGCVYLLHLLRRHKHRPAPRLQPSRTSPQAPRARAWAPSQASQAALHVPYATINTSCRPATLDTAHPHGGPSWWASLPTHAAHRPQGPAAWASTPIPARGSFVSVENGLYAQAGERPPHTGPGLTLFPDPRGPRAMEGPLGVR
Method: as §1

[5] = molecular target: T3, human PVRIG on FlpinCHO-PVRIG cells; assay: FACS, FlpinCHO-PVRIG cells; AUC of MFI curve relative to SRF813-hIgG1
Method: as §1

[6] = molecular target: T4, cynomolgus monkey PVRIG (Novoprotein, Cat NO. C09B) (cynomolgus monkey, UniProt A0A2K5WVV8 41-171); assay: ELISA, coated cynomolgus monkey PVRIG
T4 construct: Bought reagent; also called cynomolgus monkey PVRIG protein
T4 sequence: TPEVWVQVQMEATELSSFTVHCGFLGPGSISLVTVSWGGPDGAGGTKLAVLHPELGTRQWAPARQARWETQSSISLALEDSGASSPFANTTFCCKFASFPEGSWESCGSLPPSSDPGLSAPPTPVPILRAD

B1: PVRIG-A11 (Fc fusion)
chain: QLQLVESGGGLVQPGGSLRLSCAASGFTDDYYAIGWFRQAPGKEREGVSCISGSGGSTNYEDSVKGRFAISRDNAKNMVYLQMNDLKPEDTAVYYCAADPFWSAPCTGHNDRYFDVWGQGTLVTVSS
notes: Alpaca VHH joined to human IgG1 Fc (VHH-hinge-CH2-CH3); not shown: human IgG1 hinge-CH2-CH3
- EC50 [1]: 0.121 nM
- % AUC to COM701-hIgG1 [2]: 41.3%
- % AUC to SRF813-hIgG1 [3]: 48.6%
- % AUC to COM701-hIgG1 [4]: 117%
- % AUC to SRF813-hIgG1 [5]: 143%
- EC50 [6]: 0.0289 nM
